In data set [1] the target is T1, recombinant human calpain I (Homo sapiens, UniProt P07384).
T1 construct: the 2153 bp fragment containing the entire human 80 kDa calpain I cDNA; made in house; host or cells: Spodoptera frugiperda Sf21 cells, recombinant baculovirus (AcNPV-hCANPI-2-5, or coinfection with AcNPV-hCANP30-5 and AcNPV-hCANPI80-5)
T1 sequence (P07384 2-714): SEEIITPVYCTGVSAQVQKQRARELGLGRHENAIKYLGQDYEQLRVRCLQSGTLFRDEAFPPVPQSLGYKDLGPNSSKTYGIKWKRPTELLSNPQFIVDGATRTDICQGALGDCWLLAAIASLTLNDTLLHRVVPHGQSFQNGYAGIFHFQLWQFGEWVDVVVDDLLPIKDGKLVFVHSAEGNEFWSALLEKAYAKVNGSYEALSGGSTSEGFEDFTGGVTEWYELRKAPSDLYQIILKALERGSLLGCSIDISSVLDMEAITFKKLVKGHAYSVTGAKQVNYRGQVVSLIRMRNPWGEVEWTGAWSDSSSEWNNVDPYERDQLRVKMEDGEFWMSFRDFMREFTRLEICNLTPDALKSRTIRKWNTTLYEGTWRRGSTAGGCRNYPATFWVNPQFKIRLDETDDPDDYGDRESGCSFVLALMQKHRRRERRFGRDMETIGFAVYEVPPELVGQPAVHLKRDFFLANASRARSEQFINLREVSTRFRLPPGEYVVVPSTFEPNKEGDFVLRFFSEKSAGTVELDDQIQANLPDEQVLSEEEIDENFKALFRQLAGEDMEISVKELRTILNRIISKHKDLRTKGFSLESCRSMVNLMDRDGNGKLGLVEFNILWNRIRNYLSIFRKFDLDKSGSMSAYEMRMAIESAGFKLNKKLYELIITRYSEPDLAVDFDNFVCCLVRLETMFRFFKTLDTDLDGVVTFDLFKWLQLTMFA
T1 sequence (P04632 1-268 partner): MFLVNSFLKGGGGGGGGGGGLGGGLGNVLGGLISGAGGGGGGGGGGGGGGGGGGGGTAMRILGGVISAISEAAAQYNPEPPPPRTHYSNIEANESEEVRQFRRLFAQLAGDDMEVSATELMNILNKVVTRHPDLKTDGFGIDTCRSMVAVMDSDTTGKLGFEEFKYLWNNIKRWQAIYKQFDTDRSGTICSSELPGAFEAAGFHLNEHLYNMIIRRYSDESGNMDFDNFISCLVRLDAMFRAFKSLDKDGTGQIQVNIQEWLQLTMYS
Nature of the data set: Calcium-dependent protease activity (Succ-Leu-Tyr-AMC), recombinant calpain in Sf21 cell extracts. It counts as biochemical. The method, then:
(§1) Sf21 cells were again seeded in 24 well plates at 1.5×10^5 cells/cm^2 and infected with either wild-type virus, coinfected with both AcNPV-hCANP30-5 and AcNPV-hCANPI80-5 (MOI of 5 for each virus), or infected with AcNPV-hCANPI-2-5 (MOI=5.7). The intracellular proteins were harvested at 40 hours after infection with 100 μl/well of the following lysis buffer: 50 mM Tris-HCl, pH 7.5, 50 mM NaCl, 1 mM EDTA, 1 mM EGTA, 5 mM β-mercaptoethanol, 0.1% Triton-100, followed by a 10 minutes centrifugation at 14,000×g at 4° C. to pellet the nuclei and some membranes. The in vitro enzyme activity of 20 μl of each extract (12.5-20 μg of total protein) was measured using the synthetic peptide substrate succinyl-leucine-tyrosine-aminomethyl coumarin (Succ-Leu-Tyr-AMC) at a 1 mM concentration with and without the addition of 5 mM CaCl2 following the procedure of Sasaki et al., J. Biol. Chem., 259:12489-12494 (1984), incorporated herein by reference. The activity obtained was compared with the enzyme activity of 2 μg of partially-purified native human calpain I produced according to the method of Siman et al., supra.
The activity in the presence of calcium was also measured with the addition of 12.5 μM calpain inhibitor I following the procedure disclosed in Sasaki et al., supra. The results are depicted in FIGS. 5a-d. In FIGS. 5a-d, open circles represent activity without calcium present. […]

Data set [2] has as its system 80 kDa subunit of recombinant calpain I. Nature of the data set: Autolytic processing of the 80 kDa subunit to the 76 kDa form (immunoblot). It counts as biochemical, human. The settings on record: 6.7 mM CaCl2, 5 minutes, room temperature. The method, then: The 76 kDa form is produced in the presence of calcium by autolytic cleavage and is indicative of active enzyme. Lysates from cells either infected with wild-type AcNPV, coinfected with both AcNPV-hCANP30-5 and AcNPV-hCANPI80-5 or infected with AcNPV-hCANPI-2-5 prepared in Example 5 were incubated with or without the addition of 6.7 mM
CaCl2 for 5 minutes at room temperature, stopping the reaction by adding 6.7 mM EDTA and boiling the samples in SDS-PAGE-gel-loading buffer prior to storage at -70° C. The results of PAGE of the preparations are depicted in FIGS. 6a and b. In FIGS. 6a and b, the presence and absence of calcium is indicated by a "+" or "-", respectively. […] A single band is detected in all the samples incubated with calcium (lanes 2,5, and 7), and it comigrates with the 76 kDa native human calpain I (lane 2) that has also been incubated with calcium.
FIG. 6b contains the results of an immunoblot analysis of the same samples as in 6a except that the AB#34 antibody used was generated against the first five amino acids at the N-terminus of the 76 kDa fragment (anti-LGRHEC); (Saido et al., J. Biochem. 111:81-96 (1992)). […] Both the small amounts of the endogenously-cleaved recombinant calpain I large subunit and the single abundant 76 kDa band after the addition of calcium are detected by this antiserum.
Background: In western blotting, separated proteins are transferred to a membrane and probed.

Data set [3] deals with recombinant 80 kDa subunit of calpain I. Nature of the data set: Enzymatic activity of independently expressed 80 kDa subunit (Succ-Leu-Tyr-AMC). It counts as biochemical, human. The procedure: as §1
To determine the relative activity of the recombinantly produced 80 kDasubunit, the enzymatic activity of the subunit was examined in unfractionated extracts from Sf21 cells infected with AcNPV-hCANPI80-5. […] The same amount of enzyme activity for both the recombinant 80 kDa subunit and the recombinant calpain was then run on SDS-PAGE and the amount of each was qualitatively determined by immunoblot analysis as described in Example 4 above. As determined therefrom, approximately 4- to 5-fold more isolated 80 kDa protein is needed to give activity equivalent to that of the heterodimeric protein. Thus, the specific activity of the 80 kDa recombinant calpain I was experimentally determined to be approximately 20-25% that of the heterodimeric calpain I. This is approximately seven times greater than that of the 80 kDa subunit dissociated from native calpain I (Kikuchi et al., supra).

B1: recombinantly produced calpain: recombinant enzymatically active human calpain I, heterodimer of 80 kDa and 30 kDa subunits, expressed in a baculovirus-insect cell system (protein, UniProt P07384 2-714; P04632 1-268, looked up)
Calpain-1 catalytic subunit: SEEIITPVYCTGVSAQVQKQRARELGLGRHENAIKYLGQDYEQLRVRCLQSGTLFRDEAFPPVPQSLGYKDLGPNSSKTYGIKWKRPTELLSNPQFIVDGATRTDICQGALGDCWLLAAIASLTLNDTLLHRVVPHGQSFQNGYAGIFHFQLWQFGEWVDVVVDDLLPIKDGKLVFVHSAEGNEFWSALLEKAYAKVNGSYEALSGGSTSEGFEDFTGGVTEWYELRKAPSDLYQIILKALERGSLLGCSIDISSVLDMEAITFKKLVKGHAYSVTGAKQVNYRGQVVSLIRMRNPWGEVEWTGAWSDSSSEWNNVDPYERDQLRVKMEDGEFWMSFRDFMREFTRLEICNLTPDALKSRTIRKWNTTLYEGTWRRGSTAGGCRNYPATFWVNPQFKIRLDETDDPDDYGDRESGCSFVLALMQKHRRRERRFGRDMETIGFAVYEVPPELVGQPAVHLKRDFFLANASRARSEQFINLREVSTRFRLPPGEYVVVPSTFEPNKEGDFVLRFFSEKSAGTVELDDQIQANLPDEQVLSEEEIDENFKALFRQLAGEDMEISVKELRTILNRIISKHKDLRTKGFSLESCRSMVNLMDRDGNGKLGLVEFNILWNRIRNYLSIFRKFDLDKSGSMSAYEMRMAIESAGFKLNKKLYELIITRYSEPDLAVDFDNFVCCLVRLETMFRFFKTLDTDLDGVVTFDLFKWLQLTMFA
Calpain small subunit 1: MFLVNSFLKGGGGGGGGGGGLGGGLGNVLGGLISGAGGGGGGGGGGGGGGGGGGGGTAMRILGGVISAISEAAAQYNPEPPPPRTHYSNIEANESEEVRQFRRLFAQLAGDDMEVSATELMNILNKVVTRHPDLKTDGFGIDTCRSMVAVMDSDTTGKLGFEEFKYLWNNIKRWQAIYKQFDTDRSGTICSSELPGAFEAAGFHLNEHLYNMIIRRYSDESGNMDFDNFISCLVRLDAMFRAFKSLDKDGTGQIQVNIQEWLQLTMYS
As for B1, the “calcium-dependent substrate hydrolysis” value in data set [1] (1 mM Succ-Leu-Tyr-AMC, 5 mM CaCl2, FIGS. 5c, 5d) is listed as “calcium-dependent increase in substrate hydrolysis”. In addition, the “specific activity compared with native calpain” value in data set [1] (data not shown) is listed as “similar”. Also, in data set [2], the “autocatalytic activation by added calcium” value is listed as “correctly autoprocessed the 80 kDa subunit to the "activated" 76 kDa form”.

B2: 80 kDa recombinant calpain I: recombinant 80 kDa subunit of human calpain I expressed in Sf21 cells infected with AcNPV-hCANPI80-5 (protein, UniProt P07384 2-714, looked up)
Calpain-1 catalytic subunit: SEEIITPVYCTGVSAQVQKQRARELGLGRHENAIKYLGQDYEQLRVRCLQSGTLFRDEAFPPVPQSLGYKDLGPNSSKTYGIKWKRPTELLSNPQFIVDGATRTDICQGALGDCWLLAAIASLTLNDTLLHRVVPHGQSFQNGYAGIFHFQLWQFGEWVDVVVDDLLPIKDGKLVFVHSAEGNEFWSALLEKAYAKVNGSYEALSGGSTSEGFEDFTGGVTEWYELRKAPSDLYQIILKALERGSLLGCSIDISSVLDMEAITFKKLVKGHAYSVTGAKQVNYRGQVVSLIRMRNPWGEVEWTGAWSDSSSEWNNVDPYERDQLRVKMEDGEFWMSFRDFMREFTRLEICNLTPDALKSRTIRKWNTTLYEGTWRRGSTAGGCRNYPATFWVNPQFKIRLDETDDPDDYGDRESGCSFVLALMQKHRRRERRFGRDMETIGFAVYEVPPELVGQPAVHLKRDFFLANASRARSEQFINLREVSTRFRLPPGEYVVVPSTFEPNKEGDFVLRFFSEKSAGTVELDDQIQANLPDEQVLSEEEIDENFKALFRQLAGEDMEISVKELRTILNRIISKHKDLRTKGFSLESCRSMVNLMDRDGNGKLGLVEFNILWNRIRNYLSIFRKFDLDKSGSMSAYEMRMAIESAGFKLNKKLYELIITRYSEPDLAVDFDNFVCCLVRLETMFRFFKTLDTDLDGVVTFDLFKWLQLTMFA
Regarding B2, the “specific activity relative to heterodimeric calpain I” value in data set [3] (80 kDa subunit alone vs recombinant heterodimer) is on record as 20-25%. In addition, the “specific activity relative to 80 kDa subunit dissociated from native calpain I” value in data set [3] (comparison with Kikuchi et al.) was “approximately seven”. The “amount of protein needed to give activity equivalent to heterodimeric protein” value in data set [3] (isolated 80 kDa protein vs heterodimer) was 4- to 5 fold. Moreover, the “autocatalytic activation by added calcium” value in data set [2] was “entire amount of the 80 kDa subunit recombinant protein is capable of being autocatalytically activated”.

The record behind these values is patent US5869336A, “Recombinant enzymatically active calpain expressed in a baculovirus system” (Cephalon, Inc., priority 1997, dated 1999).
